Test results: patent US12337037B2, “Taxol conjugate compounds, pharmaceutical compositions comprising the same, and methods for their use” (N1 Life, Inc, priority 2021, dated 2025)

Key:
[1] = test system: breast cancer MCF7/MBA-MD-231 cells; experiment: CCK-8 cytotoxicity / anti-proliferation assay, MCF7/MBA-MD-231; type: cell-based; conditions: all tested concentrations (500-4000 nM)
Method: (§1) Cytotoxicity Assay—CCK8 Cancer Cells
(§2) The CCK-8 assay was applied to study the cytotoxicity of the peptide drug conjugates and their inhibition of proliferation of cancer cells. First, 2˜10×10^3 cells (depending on the rate of growth of different cell lines) with 100 μL, DMEM media were seeded in normal culture medium into each well of a 96-well plate. The cells were then cultured overnight at 37° C. with 4˜5% CO2. Different doses (4000, 2000, 1000, 500 nM for Hep3B, Hep G2 and MCF7/MBA-MD-231; 1000, 333.3, 100.0, 33.33, 3.333, 1.000, 0.333 nM for MCF7/ADR, 22Rv1, CNE1, HCT116, DLD-1) of Taxol and peptide drugs were added. After 48˜72 hour incubation, CCK-8 solution was added to each well. The cells were then incubated at 37° C. for 4 hours. The optical density was measured at 450/650 nm using a multiscan spectrometer (PerkinElmer's EnSpire Multilabel Plate Reader). The optical density is linearly proportional to the number of living cells in the sample: […]

[2] = test system: human gastric cancer (NUGC-4) cells; experiment: Efficacy against gastric cancer; type: in vivo, mice; conditions: NUGC-4 model; 9.6 mg/kg QD5 (days 0, 5, 10)
Method: The fluorescence area of the tumor was measured over the course of the study (FIG. 13). After approximately Day 15 in the mice administered PBS, the formation of bloody ascites blocked the fluorescence reading. […] FIG. 14 is a graph comparing the fluorescence area on Day 21 of the study of the mice administered vehicle and the mice administered Compound 3. FIG. 15 is a graph comparing the tumor weight of the mice administered vehicle and the mice administered Compound 3 on Day 21.

[3] = test system: human pancreatic cancer (BXPC-3) cells; experiment: Efficacy against pancreatic cancer; type: in vivo, mice; conditions: BXPC-3 model; 9.6 mg/kg QD5 (days 0, 5, 10); vs vehicle
Method: Following the procedure described in Biological Example 5, mice were injected with human pancreatic cancer (BXPC-3) cells and treated with Compound 3 (9.6 mg/kg) QD5 (dosing on days 0, 5, and 10) to study the efficacy of Compound 3. […] FIG. 11 is a graph comparing the fluorescence area on Day 17 of the study of the mice administered vehicle and the mice administered Compound 3. FIG. 12 is a graph comparing the tumor weight of the mice administered vehicle and the mice administered Compound 3 on Day 17.

[4] = Stability in plasma, mouse; type: in vitro ADME; conditions: for half-life: 37° C., read-out: Mean T1/2 (converted)
Method: (§3) Working solutions of test compounds were prepared in PBS (pH 7.4). Propantheline was used as positive control for human, monkey, dog and mouse plasma in the assay. Mevinolin was used as positive control for rat plasma in this assay. 1 mM propantheline working solution was prepared in acetonitrile. 1 mM mevinolin working solution was prepared in DMSO. Incubation buffer of 475 μL plasma for each cell was added into the incubation plate and pre-warmed at 37° C. for 15 minutes. After the pre-incubation, 25 μL of working solution (test compounds or control compounds) was spiked to plasma. For Compound 5 and Compound 3, the final concentration of organic concentration was 0%. For Taxol, the final concentration of organic solvents was 0.25%. The assay was performed in duplicate. The reaction samples were incubated at 37° C. Aliquots of 50 μL were taken from the reaction samples at 0, 0.25, 0.5, 1, 2, 4, 6, 8 and 24 hours. The reactions were stopped by the addition of 450 μL of ice-cold quench solution (methanol with 2% FA containing internal standards). All samples were vortexed for 10 minutes, following by centrifugation at 3,220 g for 30 minutes to precipitate proteins. 100 μL of the supernatant from each well was transferred to a new plate. The supernatant was diluted with ultrapure water. Samples were analyzed by LC-MS/MS. All calculations were carried out using Microsoft Excel. Peak area ratios were determined from extracted ion chromatograms. Percent compounds remaining at each time point were calculated by the following equation: Remaining Percentaget min(%)=Peak Area Ratiot min/Peak Area Ratio0 min×100
(§4) Peak Area Ratiot min is peak area ratio of control and test compounds at t min; and
(§5) Peak Area Ratio0 min is peak area ratio of control and test compounds at zero time point.
(§6) The slope value, k, was determined by linear regression of the natural logarithm of the remaining percentage of the parent drug vs. incubation time curve.
(§7) The in vitro half-life (in vitro t1/2) was determined from the slope value: in vitro t1/2=(0.693/k)

Hep G2 cells = experiment: CCK-8 cytotoxicity / anti-proliferation assay, Hep G2; type: cell-based; conditions: 2000 nM
Method: as §1, §2

SKOV-3-GFP cells = experiment: Elimination of ascites; type: in vivo, mice; conditions: SKOV-3-GFP cells injected into the peritoneal cavity; Compound 3 9.6 mg/kg, Taxol 10 mg/kg
Method: Following the procedure described in Example 5, mice injected with SKOV-3-GFP cells (a cell suspension of 6×10^6/120 μL/mouse or 8×10^6/120 μL/mouse injected into the peritoneal cavity) were also studied for the formation of ascites. Mice were administered vehicle (PBS), Taxol (10 mg/kg), or Compound 3 (9.6 mg/kg).
FIG. 16 and FIG. 18 are images of mice administered vehicle following an injection of SKOV-3-GFP cells (6×10^6/120 μL/mouse or 8×10^6/120 μL/mouse, respectively). […] FIG. 17A and FIG. 17B are images of two mice administered Compound 3 (9.6 mg/kg, equimolar to 2.5 mg/kg Taxol) following an injection of SKOV GFP cells (6×10^6/120 μL/mouse).

[5] = Stability in plasma, human; type: in vitro ADME; conditions: for half-life: 37° C., read-out: Mean T1/2 (converted)
Method: as §3, §4, §5, §6, §7

Stability in plasma, dog = type: in vitro ADME; conditions: for half-life: 37° C., read-out: Mean T1/2 (converted)
Method: as §3, §4, §5, §6, §7

Structure (SMILES)	cancer cell inhibition compared to Compound 5 (FIG. 1) [1]	fluorescence area of the tumor over the course of the study (FIG. 13) [2]	fluorescence area of the tumor over the course of the study (FIG. 10) [3]	Percent Increase of T1/2, Compound 3 over Compound 5 [4]	half-life [4]	anti-proliferation effect compared to Taxol and Compound 5 (FIG. 2B) (Hep G2 cells)	formation of ascites (SKOV-3-GFP cells)	Percent Increase of T1/2, Compound 3 over Compound 5 [5]	half-life [5]	Percent Increase of T1/2, Compound 3 over Compound 5 (Stability in plasma, dog)	half-life (Stability in plasma, dog)
CC(=O)N[C@@H](CSSCCCC(=O)OC(C(=O)O[C@H]1C[C@@]2(O)[C@@H](OC(=O)c3ccccc3)[C@@H]3[C@]4(OC(C)=O)CO[C@@H]4C[C@H](O)[C@@]3(C)C(=O)[C@H](OC(C)=O)C(=C1C)C2(C)C)[C@@H](NC(=O)c1ccccc1)c1ccccc1)C(=O)N[C@H](CCCNC(=N)N)C(=O)N[C@H](CCCNC(=N)N)C(=O)N[C@H](CCCNC(=N)N)C(=O)N[C@H](CCCNC(=N)N)C(=O)N[C@H](CCCNC(=N)N)C(=O)N[C@H](CCCNC(=N)N)C(=O)N[C@H](CCCNC(=N)N)C(=O)N[C@H](CCCNC(=N)N)C(N)=O (stereo partly drawn) [Compound 3, Ac-L-Cysteine (paclitaxel-4-mercaptobutanoate)-D-Arginine8-NH2]	substantially superior to cancer cell inhibition compared to Compound 5 at all tested concentrations	fluorescence decreased over the course of the study	fluorescence area increased in the vehicle-administered mice to a greater degree over the course of the study compared to the Compound 3-administered mice	34.18%	1.06 h	greater than the anti-proliferation effect of Taxol and Compound 5	No bloody ascites were observed	18.45%	1.22 h	1%	2.79 h
CC(=O)N[C@H](CSSCCCC(=O)O[C@@H](C(=O)O[C@H]1C[C@@]2(O)[C@@H](OC(=O)c3ccccc3)[C@@H]3[C@]4(OC(C)=O)CO[C@@H]4C[C@H](O)[C@@]3(C)C(=O)[C@H](OC(C)=O)C(=C1C)C2(C)C)[C@@H](NC(=O)c1ccccc1)c1ccccc1)C(=O)N[C@H](CCCNC(=N)N)C(=O)N[C@H](CCCNC(=N)N)C(=O)N[C@H](CCCNC(=N)N)C(=O)N[C@H](CCCNC(=N)N)C(=O)N[C@H](CCCNC(=N)N)C(=O)N[C@H](CCCNC(=N)N)C(=O)N[C@H](CCCNC(=N)N)C(=O)N[C@H](CCCNC(=N)N)C(N)=O [Compound 5, Ac-D-Cysteine (paclitaxel-4-mercaptobutanoate)-D-Arginine8-NH2]					0.79 h				1.03 h		2.76 h
CC(=O)O[C@H]1C(=O)[C@@]2(C)[C@H]([C@H](OC(=O)c3ccccc3)[C@]3(O)C[C@H](OC(=O)[C@H](O)[C@@H](NC(=O)c4ccccc4)c4ccccc4)C(C)=C1C3(C)C)[C@]1(OC(C)=O)CO[C@@H]1C[C@@H]2O [Taxol, paclitaxel]							formation of malignant as cites				
